According to PMC4537280, “ApiAP2 Factors as Candidate Regulators of Stochastic Commitment to Merozoite Production in Theileria annulata”:

T1: GST-TA16485D (TaAP2.me3 AP2 domain) (Theileria annulata (strain Ankara, …, UniProt Q4UIX2))
T1 sequence: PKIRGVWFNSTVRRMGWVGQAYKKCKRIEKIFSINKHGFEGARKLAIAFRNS

T2: GST-TA12015D (TaAP2.me2 AP2 domain) (Theileria annulata (strain Ankara, …, UniProt Q4UDT1))
T2 sequence: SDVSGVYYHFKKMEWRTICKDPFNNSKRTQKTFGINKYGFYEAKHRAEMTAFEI

B1: Bio-GTGTAC (dsDNA)
DNA 1: AATATTATAATAGTCGTAGCCATCAATGTGTACACATGGTAATATAGATTTTCGTTTATATT
DNA 2: AATATAAACGAAAATCTATATTACCATGTGTACACATTGATGGCTACGACTATTATAATATT
B2: Bio-GTGTAC-MUT (dsDNA)
DNA 1: AATATTATAATAGTCGTAGCCATCAATATATAAAAATGGTAATATAGATTTTCGTTTATATT
DNA 2: AATATAAACGAAAATCTATATTACCATTTTTATATATTGATGGCTACGACTATTATAATATT
B3: Bio-TCTATA / C-box probe (dsDNA)
DNA 1: ATTGTTAATTCCCCATCCAGATCTATAAAA
DNA 2: TTTTATAGATCTGGATGGGGAATTAACAAT
B4: Bio-2x(A)CACAC(A) (dsDNA)
DNA 1: GATACACACTTATGCACACACA
DNA 2: TGTGTGTGCATAAGTGTGTATC
B5: Bio(A)CACAC(A)-MUT (dsDNA)
DNA 1: GATATAGAATTATGCAGAATAT
DNA 2: ATATTCTGCATAATTCTATATC

Experiments:
Settings in all cases: protein: recombinant; tags: N-terminal GST (pGEX5x-2); label: 5' biotin on strand 1; blunt
[1] = target: GST-TA13515D (TaAP2.g AP2 domain) (Theileria annulata (strain Ankara, …, UniProt Q4UEK3)); experiment: EMSA; LightShift chemiluminescent EMSA kit components plus 1 ul 50% glycerol and 1 ul 1% NP40, about 0.7 ug GST fusion protein, 20 fmol biotinylated probe; competitor preincubation on ice; 4% polyacrylamide gel, 100 V, 4 C; pH and salt of binding not stated (oligo annealing in 20 mM Tris-HCl pH 7.6, 50 mM NaCl)
[2] = target: T1, GST-TA16485D (TaAP2.me3 AP2 domain); experiment: as above
[3] = target: T2, GST-TA12015D (TaAP2.me2 AP2 domain); experiment: EMSA; 0.6-1.6 ug protein; LightShift chemiluminescent EMSA kit components plus 1 ul 50% glycerol and 1 ul 1% NP40, about 0.7 ug GST fusion protein, 20 fmol biotinylated probe; competitor preincubation on ice; 4% polyacrylamide gel, 100 V, 4 C; pH and salt of binding not stated (oligo annealing in 20 mM Tris-HCl pH 7.6, 50 mM NaCl)
[4] = target: GST-TA11145D (TaAP2.me1 AP2 domain) (Theileria annulata (strain Ankara, …, UniProt Q4U8H9)); experiment: EMSA; LightShift chemiluminescent EMSA kit components plus 1 ul 50% glycerol and 1 ul 1% NP40, about 0.7 ug GST fusion protein, 20 fmol biotinylated probe; competitor preincubation on ice; 4% polyacrylamide gel, 100 V, 4 C; pH and salt of binding not stated (oligo annealing in 20 mM Tris-HCl pH 7.6, 50 mM NaCl)

Row | Binder | binding result [1] | binding result [4] | also measured
1 | B1 | binds | – | –
2 | B2 | no binding | – | –
3 | B3 | – | – | binding result [2]: binds; binding result [3]: no binding
4 | B4 | – | binds | –
5 | B5 | – | no binding | –
